Our source for the Km and Vmax values is publication PMC12093976, “Characterization of 2-phenanthroyl-CoA reductase, an ATP-independent type III aryl-CoA reductase involved in anaerobic phenanthrene degradation” (Applied and Environmental Microbiology, 2025).

For this data set, the system named is T1, CC(C)(COP(=O)(O)OP(=O)(O)OC[C@H]1O[C@@H](n2cnc3c(N)ncnc32)[C@H](O)[C@@H]1OP(=O)(O)O)[C@@H](O)C(=O)NCCC(=O)NCCSC(=O)c1ccc2c(ccc3ccccc32)c1.
T1 construct: codon-optimized gene in pASG-IBA103, C-terminal twin-Strep-tag, E. coli BL21(DE3); 72 kDa monomer; FMN, FAD, [4Fe-4S]; primers encode N-terminal MKLFEPIK and C-terminal LAALH
The data set is described as follows: LC/MS of dihydro-2-phenanthroyl-CoA formation, initial rates. The format is biochemical, uncultured Desulfobacterium sp. Particulars: dithionite-reduced methyl viologen as electron donor, 1 mM NADH, 50 µM FMN, 1 mM FAD, 50 mM HEPES pH 7.5, 30 °C, anoxic, substrate varied 2-100 µM. An excerpt: LC/MS of dihydro-2-phenanthroyl-CoA formation, initial rates on 2-phenanthroyl-CoA reductase

In the case of “2-phenanthroyl-CoA reductase (uncultured Desulfobacterium sp.)”, the Km is 1.8 µM and the Vmax was 7.9 µmol/min/mg.

Broadly, the Km is the substrate concentration at which the rate is half of its maximum. The Vmax is the top rate of the reaction or transport when substrate is in excess.
